Test results as given in patent publication US20140087995A1 (published 2014).
Numbered stars: 1 amine (or outer) side, 2 acyl side, 3 side chain; on linkers, the order of the positions; unused ones are H or OH. Bridge positions count the residues as written; N and C are the ends. Side chains are listed from the residue outwards. Ends that are not written are not given here. * marks the point of attachment. C20 diacid = O=C(O)CCCCCCCCCCCCCCCCCCC(=O)*; γGlu = O=C(O)[C@H](CCC(=O)[*:2])N[*:1]

T1: rat calcitonin receptor (rat, UniProt P32214 25-516)
T1 construct: whole, on cells; Membranes of transiently transfected BHK tk'ts 13 cells; also called rCTR; rat calcitonin (a) receptor
T1 sequence (looked up): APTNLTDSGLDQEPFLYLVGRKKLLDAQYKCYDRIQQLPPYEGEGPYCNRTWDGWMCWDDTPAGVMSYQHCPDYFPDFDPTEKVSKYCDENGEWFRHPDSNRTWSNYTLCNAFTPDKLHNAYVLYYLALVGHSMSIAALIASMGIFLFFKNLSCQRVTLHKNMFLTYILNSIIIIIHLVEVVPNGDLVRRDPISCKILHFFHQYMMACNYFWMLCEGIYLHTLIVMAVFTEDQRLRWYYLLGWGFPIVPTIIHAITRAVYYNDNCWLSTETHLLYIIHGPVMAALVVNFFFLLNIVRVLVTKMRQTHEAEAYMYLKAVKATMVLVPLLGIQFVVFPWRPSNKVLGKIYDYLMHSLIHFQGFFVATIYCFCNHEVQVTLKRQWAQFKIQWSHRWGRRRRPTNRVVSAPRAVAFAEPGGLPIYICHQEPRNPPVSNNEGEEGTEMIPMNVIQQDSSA

T2: human calcitonin receptor (human, UniProt P30988 25-474)
T2 construct: whole, on cells; Membranes of stably transfected cells; also called hCTR; hCT
T2 sequence (looked up): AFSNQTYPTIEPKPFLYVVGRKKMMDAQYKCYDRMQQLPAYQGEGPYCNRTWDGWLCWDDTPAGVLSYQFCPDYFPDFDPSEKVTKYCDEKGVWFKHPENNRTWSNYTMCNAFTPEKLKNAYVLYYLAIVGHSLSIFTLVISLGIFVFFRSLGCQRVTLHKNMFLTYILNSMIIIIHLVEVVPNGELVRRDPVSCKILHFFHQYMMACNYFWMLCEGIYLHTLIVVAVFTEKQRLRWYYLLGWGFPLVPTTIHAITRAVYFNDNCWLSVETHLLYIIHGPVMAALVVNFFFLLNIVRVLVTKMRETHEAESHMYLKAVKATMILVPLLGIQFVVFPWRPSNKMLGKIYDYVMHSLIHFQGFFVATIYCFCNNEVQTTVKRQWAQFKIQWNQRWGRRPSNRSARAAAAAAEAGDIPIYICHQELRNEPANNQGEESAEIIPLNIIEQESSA

T3: rat amylin receptor (rat calcitonin receptor + rat RAMP 3) (rat, UniProt P32214 25-516; Q9JJ73 23-147)
T3 construct: whole, on cells; Membranes of transiently transfected BHK tk'ts 13 cells; also called rAmylin-R; rat amylin 3(a) receptor
T3 sequence (looked up) 1: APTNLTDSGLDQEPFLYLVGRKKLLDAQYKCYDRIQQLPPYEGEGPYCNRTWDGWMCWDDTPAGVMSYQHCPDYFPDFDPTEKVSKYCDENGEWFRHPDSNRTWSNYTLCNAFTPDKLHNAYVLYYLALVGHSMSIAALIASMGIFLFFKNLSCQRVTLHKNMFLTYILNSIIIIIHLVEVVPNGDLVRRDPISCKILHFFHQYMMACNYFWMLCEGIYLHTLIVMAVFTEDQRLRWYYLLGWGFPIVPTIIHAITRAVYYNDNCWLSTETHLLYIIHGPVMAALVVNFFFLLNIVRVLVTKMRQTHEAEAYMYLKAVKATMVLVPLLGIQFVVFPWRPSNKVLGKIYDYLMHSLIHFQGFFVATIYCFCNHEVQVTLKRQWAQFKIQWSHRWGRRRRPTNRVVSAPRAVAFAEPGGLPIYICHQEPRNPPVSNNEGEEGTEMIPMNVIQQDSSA
T3 sequence (looked up) 2: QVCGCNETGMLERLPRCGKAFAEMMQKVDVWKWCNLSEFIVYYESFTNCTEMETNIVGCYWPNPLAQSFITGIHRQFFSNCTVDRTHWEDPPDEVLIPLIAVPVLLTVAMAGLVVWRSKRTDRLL


Tests used:
rat calcitonin receptor [1] = target: T1, rat calcitonin receptor; experiment: ratio of IC50 on rat calcitonin receptor to IC50 on rat amylin receptor (reference m40)
[2] = target: T2, human calcitonin receptor; experiment: ratio of IC50 on human calcitonin receptor to IC50 on human amylin receptor (reference m42), SPA competition
Outline: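 Competition binding by SPA with cell membranes (35 ng/μL) and SPA beads in 50 mM Hepes pH 7.4 with 1 mM CaCl2, 5 mM MgCl2, 0.1% OA and 0.02% Tween20. Incubated 120 min at 25 °C with shaking, then counted.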

[3] = target: T3, rat amylin receptor (rat calcitonin …); experiment: SPA competition with 125I-rat amylin on membranes of BHK tk'ts 13 cells with rat calcitonin receptor + rat RAMP3 (Assay VI)
rat calcitonin receptor [4] = target: T1, rat calcitonin receptor; experiment: SPA competition with 125I-calcitonin on membranes of BHK tk'ts 13 cells with rat calcitonin receptor (Assay VIII)

Binder	Ratio rCT/rAmylin binding (rat calcitonin receptor [1])	Ratio hCT/hAmylin binding [2]	IC50 [3]	IC50 (rat calcitonin receptor [4])
K([γGlu-C20 diacid])CNTATCATQRLAEFLRHSSPNFGAIPSSTNVGHETY-NH2 (disulfide 2-7; N-terminus assumed; SMILES CC[C@H](C)[C@H](NC(=O)[C@H](C)NC(=O)CNC(=O)[C@H](Cc1ccccc1)NC(=O)[C@H](CC(N)=O)NC(=O)[C@@H]1CCCN1C(=O)[C@H](CO)NC(=O)[C@H](CO)NC(=O)[C@H](Cc1c[nH]cn1)NC(=O)[C@H](CCCNC(=N)N)NC(=O)[C@H](CC(C)C)NC(=O)[C@H](Cc1ccccc1)NC(=O)[C@H](CCC(=O)O)NC(=O)[C@H](C)NC(=O)[C@H](CC(C)C)NC(=O)[C@H](CCCNC(=N)N)NC(=O)[C@H](CCC(N)=O)NC(=O)[C@@H](NC(=O)[C@H](C)NC(=O)[C@@H]1CSSC[C@H](NC(=O)[C@@H](N)CCCCNC(=O)CC[C@H](NC(=O)CCCCCCCCCCCCCCCCCCC(=O)O)C(=O)O)C(=O)N[C@@H](CC(N)=O)C(=O)N[C@@H]([C@@H](C)O)C(=O)N[C@@H](C)C(=O)N[C@@H]([C@@H](C)O)C(=O)N1)[C@@H](C)O)C(=O)N1CCC[C@H]1C(=O)N[C@@H](CO)C(=O)N[C@@H](CO)C(=O)N[C@H](C(=O)N[C@@H](CC(N)=O)C(=O)N[C@H](C(=O)NCC(=O)N[C@@H](Cc1c[nH]cn1)C(=O)N[C@@H](CCC(=O)O)C(=O)N[C@H](C(=O)N[C@@H](Cc1ccc(O)cc1)C(N)=O)[C@@H](C)O)C(C)C)[C@@H](C)O, Synthetic acylated analogue of human amylin; also called compound 107)	34.6	11.1	0.958 nM	33.1 nM
K([γGlu-C20 diacid])CNTATCATQRLAEFLRHSSPNFGAIPSSTNVGRETY-NH2 (disulfide 2-7; N-terminus assumed; SMILES CC[C@H](C)[C@H](NC(=O)[C@H](C)NC(=O)CNC(=O)[C@H](Cc1ccccc1)NC(=O)[C@H](CC(N)=O)NC(=O)[C@@H]1CCCN1C(=O)[C@H](CO)NC(=O)[C@H](CO)NC(=O)[C@H](Cc1c[nH]cn1)NC(=O)[C@H](CCCNC(=N)N)NC(=O)[C@H](CC(C)C)NC(=O)[C@H](Cc1ccccc1)NC(=O)[C@H](CCC(=O)O)NC(=O)[C@H](C)NC(=O)[C@H](CC(C)C)NC(=O)[C@H](CCCNC(=N)N)NC(=O)[C@H](CCC(N)=O)NC(=O)[C@@H](NC(=O)[C@H](C)NC(=O)[C@@H]1CSSC[C@H](NC(=O)[C@@H](N)CCCCNC(=O)CC[C@H](NC(=O)CCCCCCCCCCCCCCCCCCC(=O)O)C(=O)O)C(=O)N[C@@H](CC(N)=O)C(=O)N[C@@H]([C@@H](C)O)C(=O)N[C@@H](C)C(=O)N[C@@H]([C@@H](C)O)C(=O)N1)[C@@H](C)O)C(=O)N1CCC[C@H]1C(=O)N[C@@H](CO)C(=O)N[C@@H](CO)C(=O)N[C@H](C(=O)N[C@@H](CC(N)=O)C(=O)N[C@H](C(=O)NCC(=O)N[C@@H](CCCNC(=N)N)C(=O)N[C@@H](CCC(=O)O)C(=O)N[C@H](C(=O)N[C@@H](Cc1ccc(O)cc1)C(N)=O)[C@@H](C)O)C(C)C)[C@@H](C)O, Synthetic acylated analogue of human amylin)	81.1	28.5	1.06 nM	86.1 nM
K([γGlu-C20 diacid])CNTATCATQRLAEFLRHSSPNFGAIPSSTNVGSHTY-NH2 (disulfide 2-7; N-terminus assumed; SMILES CC[C@H](C)[C@H](NC(=O)[C@H](C)NC(=O)CNC(=O)[C@H](Cc1ccccc1)NC(=O)[C@H](CC(N)=O)NC(=O)[C@@H]1CCCN1C(=O)[C@H](CO)NC(=O)[C@H](CO)NC(=O)[C@H](Cc1c[nH]cn1)NC(=O)[C@H](CCCNC(=N)N)NC(=O)[C@H](CC(C)C)NC(=O)[C@H](Cc1ccccc1)NC(=O)[C@H](CCC(=O)O)NC(=O)[C@H](C)NC(=O)[C@H](CC(C)C)NC(=O)[C@H](CCCNC(=N)N)NC(=O)[C@H](CCC(N)=O)NC(=O)[C@@H](NC(=O)[C@H](C)NC(=O)[C@@H]1CSSC[C@H](NC(=O)[C@@H](N)CCCCNC(=O)CC[C@H](NC(=O)CCCCCCCCCCCCCCCCCCC(=O)O)C(=O)O)C(=O)N[C@@H](CC(N)=O)C(=O)N[C@@H]([C@@H](C)O)C(=O)N[C@@H](C)C(=O)N[C@@H]([C@@H](C)O)C(=O)N1)[C@@H](C)O)C(=O)N1CCC[C@H]1C(=O)N[C@@H](CO)C(=O)N[C@@H](CO)C(=O)N[C@H](C(=O)N[C@@H](CC(N)=O)C(=O)N[C@H](C(=O)NCC(=O)N[C@@H](CO)C(=O)N[C@@H](Cc1c[nH]cn1)C(=O)N[C@H](C(=O)N[C@@H](Cc1ccc(O)cc1)C(N)=O)[C@@H](C)O)C(C)C)[C@@H](C)O, Synthetic acylated analogue of human amylin)	22.7	26.4	1.16 nM	26.3 nM

Stronger by IC50 [3], values ahead:

Ratio rCT/rAmylin binding (rat calcitonin receptor [1])	Ratio hCT/hAmylin binding [2]	IC50 [3]	IC50 (rat calcitonin receptor [4])	Binder
62	16.7	0.3 nM	18.6 nM	K([γGlu-C20 diacid])CNTATCATQRLADFLRHSSPNFGAIPSSTNVGPETY-NH2 (disulfide 2-7; N-terminus assumed; SMILES CC[C@H](C)[C@H](NC(=O)[C@H](C)NC(=O)CNC(=O)[C@H](Cc1ccccc1)NC(=O)[C@H](CC(N)=O)NC(=O)[C@@H]1CCCN1C(=O)[C@H](CO)NC(=O)[C@H](CO)NC(=O)[C@H](Cc1c[nH]cn1)NC(=O)[C@H](CCCNC(=N)N)NC(=O)[C@H](CC(C)C)NC(=O)[C@H](Cc1ccccc1)NC(=O)[C@H](CC(=O)O)NC(=O)[C@H](C)NC(=O)[C@H](CC(C)C)NC(=O)[C@H](CCCNC(=N)N)NC(=O)[C@H](CCC(N)=O)NC(=O)[C@@H](NC(=O)[C@H](C)NC(=O)[C@@H]1CSSC[C@H](NC(=O)[C@@H](N)CCCCNC(=O)CC[C@H](NC(=O)CCCCCCCCCCCCCCCCCCC(=O)O)C(=O)O)C(=O)N[C@@H](CC(N)=O)C(=O)N[C@@H]([C@@H](C)O)C(=O)N[C@@H](C)C(=O)N[C@@H]([C@@H](C)O)C(=O)N1)[C@@H](C)O)C(=O)N1CCC[C@H]1C(=O)N[C@@H](CO)C(=O)N[C@@H](CO)C(=O)N[C@H](C(=O)N[C@@H](CC(N)=O)C(=O)N[C@H](C(=O)NCC(=O)N1CCC[C@H]1C(=O)N[C@@H](CCC(=O)O)C(=O)N[C@H](C(=O)N[C@@H](Cc1ccc(O)cc1)C(N)=O)[C@@H](C)O)C(C)C)[C@@H](C)O, Synthetic acylated analogue of human amylin)
45.5	38.6	0.339 nM	15.4 nM	K([γGlu-C20 diacid])CNTATCATQRLAEFLRHSSPNFGAIPSSTNVGPRTY-NH2 (disulfide 2-7; N-terminus assumed; SMILES CC[C@H](C)[C@H](NC(=O)[C@H](C)NC(=O)CNC(=O)[C@H](Cc1ccccc1)NC(=O)[C@H](CC(N)=O)NC(=O)[C@@H]1CCCN1C(=O)[C@H](CO)NC(=O)[C@H](CO)NC(=O)[C@H](Cc1c[nH]cn1)NC(=O)[C@H](CCCNC(=N)N)NC(=O)[C@H](CC(C)C)NC(=O)[C@H](Cc1ccccc1)NC(=O)[C@H](CCC(=O)O)NC(=O)[C@H](C)NC(=O)[C@H](CC(C)C)NC(=O)[C@H](CCCNC(=N)N)NC(=O)[C@H](CCC(N)=O)NC(=O)[C@@H](NC(=O)[C@H](C)NC(=O)[C@@H]1CSSC[C@H](NC(=O)[C@@H](N)CCCCNC(=O)CC[C@H](NC(=O)CCCCCCCCCCCCCCCCCCC(=O)O)C(=O)O)C(=O)N[C@@H](CC(N)=O)C(=O)N[C@@H]([C@@H](C)O)C(=O)N[C@@H](C)C(=O)N[C@@H]([C@@H](C)O)C(=O)N1)[C@@H](C)O)C(=O)N1CCC[C@H]1C(=O)N[C@@H](CO)C(=O)N[C@@H](CO)C(=O)N[C@H](C(=O)N[C@@H](CC(N)=O)C(=O)N[C@H](C(=O)NCC(=O)N1CCC[C@H]1C(=O)N[C@@H](CCCNC(=N)N)C(=O)N[C@H](C(=O)N[C@@H](Cc1ccc(O)cc1)C(N)=O)[C@@H](C)O)C(C)C)[C@@H](C)O, Synthetic acylated analogue of human amylin)
52.2	21.2	0.104 nM	5.43 nM	K([γGlu-C20 diacid])CNTATCATQRLAEFLRHSSPNFGAIPSSTNVGPHTY-NH2 (disulfide 2-7, Synthetic acylated analogue of human amylin)
